# Measurements reported in the supplement of paper PMC9170038.
# Test system: MS2 coat protein
# Assay: apparent KD of MS2 coat protein, switch OFF state (with FMN for OFF switches, without FMN for ON switches); designed switch direction (-1 OFF switch, 1 ON switch): -1; higher = weaker reporter binding
# Details: FMN input: 0 or 200 uM; Eterna round: R93 (includes R88 designs)
# Summary of the method: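 On-chip transcription from Illumina sequencing clusters produced the designed RNA switches. These were titrated with SNAP-549-labelled MS2 coat protein (twofold steps, 0.7 or 1.5 nM to 3 µM) in 100 mM Tris-HCl pH 7.5, 80 mM KCl, 4 mM MgCl2, with or without constant ligand. The apparent KD given is the per-design median of normalised cluster binding-curve fits.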
row,Sequence,apparent KD of MS2 coat protein [nM]
1,AAGAUGUGAGGAUAUGCUGCUCGUCACAAAAGUGAUGAGUAGCAGAAGGUACAUGAGGAUCACCCAUGUAAAGA [JL eternac mod 7],20.9
2,AACUGACAUGAGGAUCACCCAUGUCAGGAUAUGACAUCGAAAAAUAAAUAAAUCGUUGUCAGAAGGGACAUGAA [Design 76: Sub-opt S],14.9
3,AAAAUGUCAGGAUAUCUGGAUAGGAAAAAGAAAACCUAUCCAGAGAAGGGACAUGAGGAUCACCCAUGUAAAAA [JL cataway mod 3],171
4,AAAAAACAUGAGGAUCACCCAUGUAAGGAUAUGUAAAAUAAAAGAAAAAUAAAGAAAAGCAGAAGGUAUAUGUA [JL wbt mod 17],24.7
5,AAGAAGGAAGGAUAUACAUGAGGAUCACCCAUGUAAAAGAAAGAAAGGGAAAAGAAAAGUAGAAGGUCCAAGAA [Aakheperre Setepenre Osorkon],38.7
6,AAAACGGUAGGAUAUACGAUUGGGAACUAGACCGAGGAACCACAUGAGGAUCACCCAUGUAGAAGGGCCAAAAA [Ex2 Malc#14],16.7
7,AAGAGUAGAGGAUAUACAAAGGGAGAGUCGAAAGACUCAAAACAUGAGGAUCACCCAUGUAGAAGGCUACUCAA [Hyphema Seclusion Mod 62% 7],746
8,AGCAAGUUAGGAUAUGCGAAGUCAGGACACACACUGACGAAGCAGAAGGAACAUGAGGAUCACCCAUGUAAGCA [JR_Exclusion-4 65% 4],16.6
9,GAGAAGUUAGGAUAUACAGCGGGUAGCCGCGGUGGCCUUAGACAUGAGGAUCACCCAUGUAGAAGGAACGAAAA [Tebied],12.6
10,AAGGAUAGAGGAUAUACAUAGAUACAGAUUCAUGUAGAACUACAUGAGGAUCACCCAUGUAGAAGGCUAUCAUA [AJ 32],89.1
11,AAAACGUGAGGAUAUGCACCAAAAAAGGAAAAACGGGUACGACAUGAGGAUCACCCAUGUAGAAGGCACGAAAA [Frodo Flailing 9 - Jieux - Exclusion 2],39
12,AAAAAGCUAGGAUAUACGAAAAAAAAGGGUAGAAAAAAAACACAUGAGGAUCACCCAUGUAGAAGGAGCAAAAA [Mat - Exclusion 2 - Tesla mod - D33],84.6
13,AUCUUGUCAGGAUAUGACUACAUAAAAAAUAAAAAAUGUAGUCAGAAGGGACAUGAGGAUCACCCAUGUACCAA [Mat - Exclusion 4 - Eli mod - D96],22.3
14,AAAUAGCAAGGAUAUACAUGAGGAUCACCCAUGUGAAAAAGAUAUGGAAUAGAAUAGAGUAGAAGGUGCAAAUA [Ex 3 Tesla 8],54.1
15,AAAUAGUUAGGAUAUACAUGAGGAUCACCCAUGUGGACUUAUGGAGAAUAAUUUAGUGGUAGAAGGGACUAAAA [EX2 Malc#27],44.6
16,UAUACGUGAGGAUAUGCGAAUACCACGUAAGACAUACAGACGCAGAAGGCACAUGAGGAUCACCCAUGUGAACC [JR_Exc004_Sub314],16.3
17,AUGUACCUAGGAUAUACAUGAGGAUCACCCAUGUACUGGGAGCAAUCAAGUUAAUAUUGUAGAAGGAGGUGAAA [JR_Exc003_Sub315],58.6
18,AAAAAACAUGAGGAUCACCCAUGUGAGGAUAUGCGAAAAAAAAAAUAAAAAAAAAAAAGUAGAAGGUACAAAAA [LROPPY Exclusion 1 - v08_deltaG=5.44],26.9
19,AAAACGGUAGGAUAUACAGUCCGUUGUCGAAUGAUGAAAAGACAUGAGGAUCACCCAUGUAGAAGGACCGAAAA [Bienor],138
20,AAAAAACAUGAGGAUCACCCAUGUUAGGAUAUGCUAUGGAAAAAUAAAAUAAAACAUAGCAGAAGGGACAAAAA [Mat - Exclusion 1 - Eli mod - D28],38.3
21,AAAAAGUCAGGAUAUGUAGCAAAAGGUGAUCAAAAAAAGCUACAGAAGGGACAUGAGGAUCACCCAUGUAAAAA [Ex4: 937],156
22,AAAAAGUGAGGAUAUCCAGAUAAAAAAACGAAAAAAAAUCUGGAGAAGGCACAUGAGGAUCACCCAUGUAUGAC [Ex 4 May 6],38.2

row,Sequence,apparent KD of MS2 coat protein [nM]
1,UAAAGACAUGAGGAUCACCCAUGUGAGGAUAUCGGAGAUAACGGAACAUCAAGUUCGGCGAGAAGGCGCAGGAA [JR_Exc001_Sub405],38
2,AGCACGGUAGGAUAUACGAACAAAACGGGAGAACUAAAGGGACAUGAGGAUCACCCAUGUAGAAGGACCAAGCA [Diamond 90],119
3,ACUAAACGAGGAUAUACUAACGAACCUCAAACAUAGAUAAGACAUGAGGAUCACCCAUGUAGAAGGCGUAGACU [JR_Exc002_Sub008],59.7
4,AACAGGUGAGGAUAUCGAACAACAACAACAACAACAACAAACGAGAAGGCACAUGAGGAUCACCCAUGUAAGAA [Exclusion 4C],16.6
5,AAAGAUACAGGAUAUACAUGAGGAUCACCCAUGUGGAAUCAAAAAUGGGAAAAAGAAAGUAGAAGGGUAUAAAA [Ex 3 May 38],87.3
6,AAAAUACAUGAGGAUCACCCAUGUGAGGAUAUGCUAUGGAAAUAAAAAAUAAAACAUAGCAGAAGGUACAAAAA [Mat - Exclusion 1 - Eli mod - D42],33.7
7,GCUGGCGUAGGAUAUACAUGAGGAUCACCCAUGUGAGAGAAAAAAGUGAGAAAGAAAAGUAGAAGGACGUUAGG [salish99-ex3-116],106
8,CUCUAGUCAGGAUAUGCAAGAAAAGAAGAGAAAGAAAAGAAGCAGAAGGGACAUGAGGAUCACCCAUGUAAGAA [EteRNA is fun!],83.4
9,GUCAGCUGAGGAUAUACAGGUGAGGCCGCAUAACAAAAUAUACAUGAGGAUCACCCAUGUAGAAGGCGGAAGAC [Soreramare],47.6
10,AAAAAACAUGAGGAUCACCCAUGUAAGGAUAUGCAAGCAAGAAGAAAGAACAGAAAAAGCAGAAGGUACACACA [Amethyst 73],25
11,GAAAAGUCAGGAUAUGUACAAAAUAAAAUAAAAAUAAAAGUACAGAAGGGACAUGAGGAUCACCCAUGUAAAAG [Mat - Exclusion 4 - Mayanna - D120],54.2
12,AAGAACAGAGGAUAUACAUGAGGAUCACCCAUGUAAAAGAAAGAAAAGGGAAAGAAAAGUAGAAGGCUGAAGAA [Ankhkheperure Smenkhkare],42.8
13,AAGAAGUGAGGAUAUACAAAAUAAAAGAAAAGAAAGAAAGAACAUGAGGAUCACCCAUGUAGAAGGCGCAAGAA [Merhotepre Ini],24.9
14,AAAAAUGGAGGAUAUACAUGAGGAUCACCCAUGUGUAACUAUACUAAGCGCUCCUCACGUAGAAGGCCAAAAAA [Gilly Gone Silly 14 - Jieux - Exclusion 3],31.4
15,AGCUAGUCAGGAUAUACGAAAAUGACAGAAGACGUAAGGGAACAUGAGGAUCACCCAUGUAGAAGGGACUAGCA [Diamond 42],67.7
16,GAAGAACAUGAGGAUCACCCAUGUCAGGAUAUACAGAAGGGAAUAAUAAAAUCUGGAAGUAGAAGGGACAAGAA [Ex 1 May 46],49.3
17,GGAUGUGAAGGAUAUACAUGAGGAUCACCCAUGUGAGAGAAAAAAGUGAGAAAGAAAAGUAGAAGGUCGUGUCG [salish99-ex3-86],36.9
18,AAAAAAAGAGGAUAUACGUACAUGUCGAAAGACGUGAAGGGACAUGAGGAUCACCCAUGUAGAAGGUUUAAAAA [Mat - Exclusion 2 - JL mod - D84],15.8
19,"AAAAAGAGAGGAUAUACAUGAGGAUCACCCAUGUGACACAAAAAAAAAAAAAAAAAAUGUAGAAGGCUCAAAAA [65%, Moding Exclusion3-cac2, 18]",97.2
20,AGAAAGUGAGGAUAUACAGAUAAAAAAACGAAAAAAAAUCUGUAGAAGGCACAUGAGGAUCACCCAUGUAAAGA [Mat - Exclusion 4 - Mayanna - D108],37.1
21,AAAAAGCGAGGAUAUACAUGAGGAUCACCCAUGUGAAAGUCGAAAAAAAAGACAAAAAGUAGAAGGCGCAAAAA [Banishment 7 - Jieux - Exclusion 3],22.8
22,AUGUAGGGAGGAUAUACAUAGAUACAGAUUCAUGUGGAACUACAUGAGGAUCACCCAUGUAGAAGGCCCUAAAA [Mat - Same state - Mayanna Mod - D125],117
